Data: patent publication US20220251173A1
Positions count from the first letter of the chain named.

B1: D3 DY (antibody, human IgG1, kappa, V domains shown)
VH: EVQLQESGPGLVKPSQTLSLTCAVSGSSITHGYHYNWIRQFPGNKLEWIGYIHYDGSVLYNPSLENRVTITRDTSKNQFFLKLSSVTAEDTAKYYCASGFDHWGQGTTLTVSS
VL: DVVMTQSPLSLPVTLGEPASISCRSSQSLVHSYGDNYLHWYLQKPGQSPKLLIYKVSNRFSGVPDRFSGSGSGTDFTLKISRVETEDLGVYYCSQNTHVPYTFGGGTKLEIKR
B2: D5 DY (antibody, human IgG1, kappa, V domains shown)
VH: B1 VH with Y35W
VL: B1 VL
B3: D4 DY (antibody, human IgG1, kappa, V domains shown)
VH: B1 VH with Y35W
VL: B1 VL with V99L
B4: C32 (antibody, human IgG1, kappa, V domains shown)
VH: B1 VH with H31Y, G32R, Y35W, H53N, L59H
VL: B1 VL with N36T, V99L

Assays:
[1] = biological target: hepatitis B virus surface antigen (HBsAg) (hepatitis B virus); experiment: ELISA on commercial HBsAg plate, purified antibody, incubation and washes at pH 7.4, GAH-HRP, OD450/630
[2] = biological target: hepatitis B virus surface antigen (HBsAg) (hepatitis B virus); experiment: ELISA on commercial HBsAg plate, wash/incubation at pH 6.0, quantified transfection supernatant
[3] = biological target: hepatitis B virus surface antigen (HBsAg) (hepatitis B virus); experiment: ELISA on commercial HBsAg plate, pH 7.4, quantified transfection supernatant
[4] = biological target: hepatitis B virus surface antigen (HBsAg) (hepatitis B virus); experiment: ELISA on commercial HBsAg plate, ratio of EC50 at pH 6.0 to pH 7.4

Binder	EC50 (read off the curve) [1] [ng/mL]	EC50 [2] [µg/mL]	EC50 [3] [µg/mL]	EC50(pH 6.0)/EC50(pH 7.4) [4]
B1	50			
B2	40			
B3	60			
B4		2.25	1.33	1.69
